Results on 1 substance are retold here after article PMC4900678.

The series concerns Rrp5_C8;Rok1 (Saccharomyces cerevisiae;Saccharomyces cerevisiae). Kind of series: glycerol gradient sedimentation. The settings on record: EMSA: 200 mM KCl, 10 mM MgCl2, 40 mM HEPES/KOH pH 7.5, 10 mM Mg-AMPPCP or 1 mM Mg-ADP, 12 min 25 C, native gel 4 C. 40S binding: 200 mM KOAc, 20 mM HEPES/KOH ….

Take mature 40S ribosomal subunit (18S rRNA): the binding signal stood at 2 % Rrp5 bound (400 uM ADP, 98% of Rrp5 free) and 15 % Rrp5 bound (4 mM AMPPCP).
